Reference: patent publication US20230357348A1 (AstraZeneca / MedImmune, published 2023)
Like-named read-outs stand apart in the source and are kept apart here. Blank lines part the entries; values can stand above or below the binder they belong to. Starred links: 1 amine or outer side, 2 acyl side, 3 side chain; linkers in the order of their positions; H or OH if unused. Non-standard residues stand in square brackets, D forms with d. Groups on a side chain read outwards from the residue. Primed or numbered codes have the meaning given here. No end group written: not given here. *: point of attachment. C20 diacid = O=C(O)CCCCCCCCCCCCCCCCCCC(=O)*; C18 diacid = O=C(O)CCCCCCCCCCCCCCCCC(=O)*; γGlu = O=C(O)[C@H](CCC(=O)[*:2])N[*:1]; Stearoyl = CCCCCCCCCCCCCCCCCC(=O)*; Palmitoyl = CCCCCCCCCCCCCCCC(=O)*; αMeF = C[C@](N)(Cc1ccccc1)C(=O)O; (PEG)2 = polyethylene glycol 2; PEG2′ = polyethylene glycol 2; AEEA = NCCOCCOCC(=O)O; Aib = CC(C)(N)C(=O)O

How the values were obtained:
Assay in all cases: cell-based or functional assay
[1] = molecular target: T1, human GLP-1 receptor (hGLP-1R) (human, UniProt P43220 24-463)
[2] = molecular target: T2, human glucagon receptor (hGCGR) (human, UniProt P47871 26-477)
T2 sequence (P47871 26-477): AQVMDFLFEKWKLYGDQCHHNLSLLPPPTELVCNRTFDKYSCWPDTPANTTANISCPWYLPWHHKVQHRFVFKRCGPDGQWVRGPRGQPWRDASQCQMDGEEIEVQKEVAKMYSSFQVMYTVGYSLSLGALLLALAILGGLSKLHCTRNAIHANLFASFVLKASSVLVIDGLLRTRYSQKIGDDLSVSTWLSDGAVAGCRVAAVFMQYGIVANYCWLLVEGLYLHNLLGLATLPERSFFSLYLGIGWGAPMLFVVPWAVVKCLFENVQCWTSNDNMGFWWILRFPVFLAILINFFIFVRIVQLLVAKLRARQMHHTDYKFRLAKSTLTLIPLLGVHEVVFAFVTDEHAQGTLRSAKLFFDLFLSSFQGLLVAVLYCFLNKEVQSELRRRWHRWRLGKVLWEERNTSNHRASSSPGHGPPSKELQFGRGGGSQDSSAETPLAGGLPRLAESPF

[3] = molecular target: T1, human GLP-1 receptor (hGLP-1R); remark: listed apart in the source
[4] = molecular target: T2, human glucagon receptor (hGCGR); remark: listed apart in the source
[5] = molecular target: T1, human GLP-1 receptor (hGLP-1R); remark: listed apart in the source
[6] = molecular target: T2, human glucagon receptor (hGCGR); remark: listed apart in the source

hGLP-1R EC50 (pM); cAMP production [1]: 35.7 pM
hGluc-R EC50 (pM); cAMP production [2]: 23.6 pM
B1: Peptide 361 (peptide)
peptide: H[Aib]IGS[αMeF]TSDVSK[αMeF]LDSRAAQDFVK([AEEA-AEEA-γGlu-C18 diacid])WIANT-NH2
modifications: N-terminus assumed
SMILES: CC[C@H](C)[C@H](NC(=O)[C@H](Cc1c[nH]c2ccccc12)NC(=O)[C@H](CCCCNC(=O)COCCOCCNC(=O)COCCOCCNC(=O)CC[C@H](NC(=O)CCCCCCCCCCCCCCCCC(=O)O)C(=O)O)NC(=O)[C@@H](NC(=O)[C@H](Cc1ccccc1)NC(=O)[C@H](CC(=O)O)NC(=O)[C@H](CCC(N)=O)NC(=O)[C@H](C)NC(=O)[C@H](C)NC(=O)[C@H](CCCNC(=N)N)NC(=O)[C@H](CO)NC(=O)[C@H](CC(=O)O)NC(=O)[C@H](CC(C)C)NC(=O)[C@](C)(Cc1ccccc1)NC(=O)[C@H](CCCCN)NC(=O)[C@H](CO)NC(=O)[C@@H](NC(=O)[C@H](CC(=O)O)NC(=O)[C@H](CO)NC(=O)[C@@H](NC(=O)[C@](C)(Cc1ccccc1)NC(=O)[C@H](CO)NC(=O)CNC(=O)[C@@H](NC(=O)C(C)(C)NC(=O)[C@@H](N)Cc1c[nH]cn1)[C@@H](C)CC)[C@@H](C)O)C(C)C)C(C)C)C(=O)N[C@@H](C)C(=O)N[C@@H](CC(N)=O)C(=O)N[C@H](C(N)=O)[C@@H](C)O

hGLP-1R EC50 (pM); cAMP production [1]: 46.1 pM
hGluc-R EC50 (pM); cAMP production [2]: 5050 pM
Binder: HXIGSXTSDVSKXLDSQAAQDFVXWIANT (Aib at 2; αMePhe at 6 and 13; K(O2Oc-O2Oc-γE-C18diacid)24; C-terminal amide) [Peptide 359]

hGLP-1R EC50 (pM); cAMP production [3]: 0.583 pM
hGluc-R EC50 (pM); cAMP production [4]: 11.8 pM
Binder: H[Aib]QGS[αMeF]TSDK([PEG2′-PEG2′-γGlu-Palmitoyl])SKILDSRAAQD[αMeF]VEWIANT-NH2 [Peptide 396 (of Table 9, position 10)]

hGLP-1R EC50 (pM); cAMP production [3]: 312 pM
hGluc-R EC50 (pM); cAMP production [4]: 6920 pM
B2: Peptide 392 (of Table 9, position 10) (peptide)
peptide: H[Aib]HGS[αMeF]TSDK([AEEA-AEEA-γGlu-C18 diacid])SK[αMeF]LDSRAAQD[αMeF]VQ[Aib]IANT-NH2
modifications: N-terminus assumed
SMILES: CC[C@H](C)[C@H](NC(=O)C(C)(C)NC(=O)[C@H](CCC(N)=O)NC(=O)[C@@H](NC(=O)[C@](C)(Cc1ccccc1)NC(=O)[C@H](CC(=O)O)NC(=O)[C@H](CCC(N)=O)NC(=O)[C@H](C)NC(=O)[C@H](C)NC(=O)[C@H](CCCNC(=N)N)NC(=O)[C@H](CO)NC(=O)[C@H](CC(=O)O)NC(=O)[C@H](CC(C)C)NC(=O)[C@](C)(Cc1ccccc1)NC(=O)[C@H](CCCCN)NC(=O)[C@H](CO)NC(=O)[C@H](CCCCNC(=O)COCCOCCNC(=O)COCCOCCNC(=O)CC[C@H](NC(=O)CCCCCCCCCCCCCCCCC(=O)O)C(=O)O)NC(=O)[C@H](CC(=O)O)NC(=O)[C@H](CO)NC(=O)[C@@H](NC(=O)[C@](C)(Cc1ccccc1)NC(=O)[C@H](CO)NC(=O)CNC(=O)[C@H](Cc1c[nH]cn1)NC(=O)C(C)(C)NC(=O)[C@@H](N)Cc1c[nH]cn1)[C@@H](C)O)C(C)C)C(=O)N[C@@H](C)C(=O)N[C@@H](CC(N)=O)C(=O)N[C@H](C(N)=O)[C@@H](C)O

hGLP-1R EC50 (pM); cAMP production [1]: 186 pM
hGluc-R EC50 (pM); cAMP production [2]: 290 pM
B3: Peptide 368 (peptide)
peptide: H[Aib]HGS[αMeF]TSDVSK[αMeF]LDSR[Aib]AQDFVK([AEEA-AEEA-γGlu-C20 diacid])WIANT-NH2
modifications: N-terminus assumed
SMILES: CC[C@H](C)[C@H](NC(=O)[C@H](Cc1c[nH]c2ccccc12)NC(=O)[C@H](CCCCNC(=O)COCCOCCNC(=O)COCCOCCNC(=O)CC[C@H](NC(=O)CCCCCCCCCCCCCCCCCCC(=O)O)C(=O)O)NC(=O)[C@@H](NC(=O)[C@H](Cc1ccccc1)NC(=O)[C@H](CC(=O)O)NC(=O)[C@H](CCC(N)=O)NC(=O)[C@H](C)NC(=O)C(C)(C)NC(=O)[C@H](CCCNC(=N)N)NC(=O)[C@H](CO)NC(=O)[C@H](CC(=O)O)NC(=O)[C@H](CC(C)C)NC(=O)[C@](C)(Cc1ccccc1)NC(=O)[C@H](CCCCN)NC(=O)[C@H](CO)NC(=O)[C@@H](NC(=O)[C@H](CC(=O)O)NC(=O)[C@H](CO)NC(=O)[C@@H](NC(=O)[C@](C)(Cc1ccccc1)NC(=O)[C@H](CO)NC(=O)CNC(=O)[C@H](Cc1c[nH]cn1)NC(=O)C(C)(C)NC(=O)[C@@H](N)Cc1c[nH]cn1)[C@@H](C)O)C(C)C)C(C)C)C(=O)N[C@@H](C)C(=O)N[C@@H](CC(N)=O)C(=O)N[C@H](C(N)=O)[C@@H](C)O

hGLP-1R EC50 (pM); cAMP production [1]: 108 pM
hGluc-R EC50 (pM); cAMP production [2]: 5640 pM
B4: Peptide 360 (peptide)
peptide: H[Aib]IGS[αMeF]TSDVSK[αMeF]LDSRAAQDFVK([AEEA-AEEA-γGlu-C20 diacid])WIANT-NH2
modifications: N-terminus assumed
SMILES: CC[C@H](C)[C@H](NC(=O)[C@H](Cc1c[nH]c2ccccc12)NC(=O)[C@H](CCCCNC(=O)COCCOCCNC(=O)COCCOCCNC(=O)CC[C@H](NC(=O)CCCCCCCCCCCCCCCCCCC(=O)O)C(=O)O)NC(=O)[C@@H](NC(=O)[C@H](Cc1ccccc1)NC(=O)[C@H](CC(=O)O)NC(=O)[C@H](CCC(N)=O)NC(=O)[C@H](C)NC(=O)[C@H](C)NC(=O)[C@H](CCCNC(=N)N)NC(=O)[C@H](CO)NC(=O)[C@H](CC(=O)O)NC(=O)[C@H](CC(C)C)NC(=O)[C@](C)(Cc1ccccc1)NC(=O)[C@H](CCCCN)NC(=O)[C@H](CO)NC(=O)[C@@H](NC(=O)[C@H](CC(=O)O)NC(=O)[C@H](CO)NC(=O)[C@@H](NC(=O)[C@](C)(Cc1ccccc1)NC(=O)[C@H](CO)NC(=O)CNC(=O)[C@@H](NC(=O)C(C)(C)NC(=O)[C@@H](N)Cc1c[nH]cn1)[C@@H](C)CC)[C@@H](C)O)C(C)C)C(C)C)C(=O)N[C@@H](C)C(=O)N[C@@H](CC(N)=O)C(=O)N[C@H](C(N)=O)[C@@H](C)O

hGLP-1R EC50 (pM); cAMP production [1]: 304 pM
hGluc-R EC50 (pM); cAMP production [2]: 316 pM
Binder: HXHGSXTSDVSKXLDSQAAQDFVXWIANT (Aib at 2; αMePhe at 6 and 13; K(O2Oc-O2Oc-γE-C20diacid)24; C-terminal amide) [Peptide 356]

hGLP-1R EC50 (pM); cAMP production [5]: 5.65 pM
hGluc-R EC50 (pM); cAMP production [6]: 21.8 pM
Binder: HSQGS[αMeF]TSDVSKK([AEEA-AEEA-γGlu-γGlu-Stearoyl])LDSQAAQD[αMeF]VE[Aib]LANT-NH2 [Peptide 404 (of Table 10, position 13)]

hGLP-1R EC50 (pM); cAMP production [1]: 424 pM
hGluc-R EC50 (pM); cAMP production [2]: 478 pM
B5: Peptide 355 (peptide)
peptide: HXHGSXTSDVSKXLDSQAAQDFVXWIANT
modifications: Aib at 2; αMePhe at 6 and 13; K((PEG)2-(PEG)2-γE-γE-C20diacid)24; C-terminal amide

hGLP-1R EC50 (pM); cAMP production [5]: 1.04 pM
hGluc-R EC50 (pM); cAMP production [6]: 18.1 pM
Binder: H[Aib]QGS[αMeF]TSDVSKK([(PEG)2-(PEG)2-γGlu-Palmitoyl])LDSRAAQD[αMeF]VEWIANT-NH2 [Peptide 402 (of Table 10, position 13)]

hGLP-1R EC50 (pM); cAMP production [1]: 139 pM
hGluc-R EC50 (pM); cAMP production [2]: 72.4 pM
Binder: H[Aib]HGS[αMeF]TSDVSK[αMeF]LDSRAAQDFVK([AEEA-AEEA-γGlu-C20 diacid])WIANT-NH2 (not fully specified) [Peptide 367]

hGLP-1R EC50 (pM); cAMP production [1]: 917 pM
hGluc-R EC50 (pM); cAMP production [2]: 550 pM
B6: Peptide 357 (peptide)
peptide: HXHGSXTSDVSKXLDSQAAQDFVXWIANT
modifications: Aib at 2; αMePhe at 6 and 13; K(γE-γE-(PEG)2-γE-γE-C20diacid)24; C-terminal amide
